{"source": "paper PMC8983440", "biological_target": "IFN-receptor expressed by 38C13 cells (mouse (endogenous in 38C13)) (UniProt P33896)", "sequence (P33896 27-590, chain 1 of 2)": "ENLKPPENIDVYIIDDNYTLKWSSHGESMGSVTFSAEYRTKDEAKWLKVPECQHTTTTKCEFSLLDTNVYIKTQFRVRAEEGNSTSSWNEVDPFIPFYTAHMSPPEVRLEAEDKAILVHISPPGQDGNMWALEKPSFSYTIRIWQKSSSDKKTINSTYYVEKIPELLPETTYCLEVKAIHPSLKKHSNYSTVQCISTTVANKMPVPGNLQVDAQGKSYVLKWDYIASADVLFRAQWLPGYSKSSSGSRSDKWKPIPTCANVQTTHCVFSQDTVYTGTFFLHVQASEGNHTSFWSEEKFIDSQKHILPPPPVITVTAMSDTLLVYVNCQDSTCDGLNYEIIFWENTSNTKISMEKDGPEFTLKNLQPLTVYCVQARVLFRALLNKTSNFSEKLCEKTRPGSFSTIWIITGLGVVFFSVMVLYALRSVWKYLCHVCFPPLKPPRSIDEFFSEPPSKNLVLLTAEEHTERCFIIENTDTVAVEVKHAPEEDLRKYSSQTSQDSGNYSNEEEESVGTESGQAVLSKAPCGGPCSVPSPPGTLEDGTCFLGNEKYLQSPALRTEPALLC", "sequence (O35664 22-513, chain 2 of 2, further chain)": "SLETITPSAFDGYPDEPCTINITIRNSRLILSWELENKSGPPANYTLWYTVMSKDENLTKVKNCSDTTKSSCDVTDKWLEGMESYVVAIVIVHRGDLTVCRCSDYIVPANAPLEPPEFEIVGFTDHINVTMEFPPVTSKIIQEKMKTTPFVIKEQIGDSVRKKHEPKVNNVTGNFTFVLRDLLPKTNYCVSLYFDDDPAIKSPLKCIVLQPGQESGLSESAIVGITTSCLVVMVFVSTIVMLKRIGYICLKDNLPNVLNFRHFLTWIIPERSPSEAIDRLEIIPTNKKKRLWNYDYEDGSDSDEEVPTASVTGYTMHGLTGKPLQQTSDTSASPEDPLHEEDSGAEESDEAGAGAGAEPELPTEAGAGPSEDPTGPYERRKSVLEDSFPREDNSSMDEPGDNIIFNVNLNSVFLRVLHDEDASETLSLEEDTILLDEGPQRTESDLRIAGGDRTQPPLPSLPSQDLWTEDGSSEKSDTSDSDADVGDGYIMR", "assay": "radioligand binding"}
{"substance": "anti-CD20 rituximab-murine IFNα1 fusion protein (from UniProt P01572 24-189)", "values": [{"measurement": "percent cell-bound activity", "value": 44.6, "unit": "%"}]}
